Reference: patent US7049079B1, “Coupling factor 6 inhibitor and potentiator and use thereof” (Daiichi Suntory Pharma Co.,Ltd., priority 1999, dated 2006)

Key:
[1] = tested on: release of arachidonic acid from HUVEC (PLA2); assay: Release of [3H]-labeled arachidonic acid from HUVEC; type: cell-based, human; details: for inhibition of release of arachidonic acid from HUVEC by PLA2 inhibitors: 40 μM AACOCF3, 1 μM OPC, 1 μM BEL
Experimental: HUVEC were cultured for 24 hours in the presence of [^3H]-labeled arachidonic acid. Then the medium was replaced by DMEM and the culture was continued in the presence of […] of CF6 at 37° C. for an additional 30 minutes. Then the release of the [^3H]-labeled arachidonic acid into the liquid culture was examined. […] The same test was carried out in the presence of 1 μM of bradykinin.
Next, the effects of a cPLA2 inhibitor (40 μM of AACOCF3: arachidonic acid […]), an sPLA2 inhibitor (1 μM of OPC; oleyloxyethylphosphorylcholine) and an iPLA2 inhibitor (1 μM of BEL: […]) of inhibiting the release of arachidonic acid form HUVEC were examined. […] Namely, the PLA2 participating in the release of arachidonic acid is cPLA2 (FIGS. 20 and 21).

[2] = tested on: rats with normal blood pressure (WKY); assay: Arterial blood pressure of anesthetized WKY, measured in the open manner from the carotid artery; type: in vivo, rat; details: WKY 15 weeks of age; rCF6 0.3, 1.0, 3.0 μg/kg bolus into femoral vein
Experimental: (§1) Blood pressure was measured in the open manner by inserting catheters directly into the aorta of rats anesthetized with 75 mg/kg of ketamine and 15 mg/kg of xylazine hydrochloride. Namely, two polyethylene catheters filled with physiological saline containing 20 U/ml of heparin were inserted respectively into the left carotid artery and the left femoral vein. Then the catheter inserted into the left carotid artery was connected to a pressure detector (Carrier Amplifier AP-601G, Nihon Kohden Co.). Each sample was dissolved in 200 μL of physiological saline and then administered via the vena cava.
(§2) SHR and WKY each 16 weeks of age were anesthetized and the anti-rCF6 antibody (0.3, 1.0 and 3.0 μg/kg) was administered by bolus injection into the femoral vein. Then the arterial blood pressure was measured in the open manner from the carotid artery.
(§3) Effects of the anti-rCF6 antibody on the effect of bradykinin of lowering rat blood pressure were examined. SHR and WKY each 16 weeks of age were anesthetized and bradykinin (0.3, 1.0 and 3.0 μg/kg) was cumulatively administered by bolus injection into the femoral vein. Then the arterial blood pressure was measured in the open manner from the carotid artery. […]
(§4) Effects of rCF6 on rat blood pressure were examined. […] Then the arterial blood pressure was measured in an open manner from the carotid artery.

[3] = tested on: spontaneously hypertensive rats (SHR); assay: Arterial blood pressure of anesthetized SHR, measured in the open manner from the carotid artery; type: in vivo, rat; details: SHR 15 weeks of age; rCF6 0.3, 1.0, 3.0 μg/kg bolus into femoral vein
Experimental: as §1, §2, §3, §4

[4] = tested on: PGI2 production of human umbilical venal endothelial cells (HUVEC); assay: Inhibition of PGI2 production (6-keto-PGF1α secreted into the medium) in HUVEC; type: cell-based
Experimental: The activity of inhibiting the PGI2 production was evaluated by measuring the stable metabolite of PGI2 (6-keto-PGF1α) secreted into the medium of smooth muscle cells collected from SHR mesenteric artery or human umbilical venal endothelial cells (HUVEC). Namely, the smooth muscle cells collected from SHR mesenteric artery were subcultured in a Dulbecco's modified Eagle medium (DMEM) containing 10% (v/v) of fetal calf serum until these cells attained the confluent state. HUVEC were proliferated in a synthetic medium (HuMedia, Kurabo Industries) containing 2% (v/v) of fetal calf serum, 10 ng/ml of EGF, 5 ng/ml of bFGF, 1 μg/ml of hydrocortisone and 10 μg/ml of heparin. The smooth muscle cells collected from SHR mesenteric artery or HUVEC were incubated for 30 minutes in the DMEM medium containing the sample to be analyzed and 6-keto-PGF1α secreted into the medium during the incubation period was determined.
HUVEC were cultured at 37° C. for 30 minutes in the DMEM containing 1, 10 and 100 nM of rCF6 prepared in Referential Example 2 and thus the inhibition of the PGI2 production by CF6 was examined. The production of PGI2 was measured with the guidance of the amount of 6-keto-PGF1α, which is a stable metabolite of PGI2, secreted into the medium. […] The same test was carried out in the presence of 1 μM of bradykinin.
Further, 10 nM of CF6 inhibited the increase in the PGI2 production due to 2 μg/ml of ionomycin but not the increase therein due to 10 ng/ml of arachidonic acid and 10 ng/ml of PGH2.

CCCCCCCC/C=C\CCCCCCCCOCCOP(=O)([O-])OCC[N+](C)(C)C [OPC, oleyloxyethylphosphorylcholine]
inhibition of release of arachidonic acid from HUVEC by PLA2 inhibitors [1]: cPLA2 inhibitor alone inhibited

CCCCC/C=C\C/C=C\C/C=C\C/C=C\CCCC(=O)C(F)(F)F [AACOCF3, arachidonic acid 3-fluoromethyl ketone]
inhibition of release of arachidonic acid from HUVEC by PLA2 inhibitors [1]: inhibited the release of arachidonic acid

O=C1O/C(=C/Br)CCC1c1cccc2ccccc12 (stereo not drawn) [BEL, bromoenolcholine]
inhibition of release of arachidonic acid from HUVEC by PLA2 inhibitors [1]: cPLA2 inhibitor alone inhibited

B1: rCF6: rat coupling factor 6, a 76 amino acid subunit of H+ ATP synthase (SEQ ID NO:2), recombinantly produced (protein)
chain: NKELDPVQKLFLDKIREYKAKRLASGGPVDTGPEYQQEVDRELFKLKQMYGKGEMDKFPTFNFEDPKFEVLDKPQS
modifications: Rat
average arterial blood pressure [2]: dose-dependently increased | average arterial blood pressure [3]: dose-dependently increased | increase in PGI2 production due to PGH2 ([4]; 10 nM CF6, 10 ng/ml PGH2): not | increase in PGI2 production due to arachidonic acid ([4]; 10 nM CF6, 10 ng/ml arachidonic acid): not | increase in PGI2 production due to ionomycin ([4]; 10 nM CF6, 2 μg/ml ionomycin): inhibited | PGI2 production (6-keto-PGF1α) ([4]; HUVEC, 1, 10 and 100 nM rCF6, 37° C., 30 minutes): dose-dependently inhibited | increase in PGI2 production due to bradykinin ([4]; HUVEC, 1, 10 and 100 nM rCF6, in the presence of 1 μM bradykinin): dose-independently inhibited | release of [3H]-labeled arachidonic acid ([1]; HUVEC, 1, 10 and 100 mM CF6, 37° C., 30 minutes): dose-dependently inhibited | bradykinin-promoted release of [3H]-labeled arachidonic acid ([1]; HUVEC, CF6 1, 10 and 100 mM, in the presence of 1 μM bradykinin): dose-dependently inhibited
